Measurements reported in patent WO2013005649A1 (dated 2013).
Non-standard residues stand in square brackets, D forms with d. No end group written: not given here. sY = N[C@@H](Cc1ccc(OS(=O)(=O)O)cc1)C(=O)O

T1: synthetic peptide CCR6-1 (1st to 17th amino acids of human CCR6) (human, also: 11 PEG units at the C-terminal side)
T1 construct: also called CCR6-1 peptide
T1 peptide: MSGESMNFSDVFDSSEDC

T2: cynomolgus monkey CCR6 (isoform 1, 177Val type) with C-terminal His tag, on CHO-cynomolgus CCR6 cells (cynomolgus monkey, UniProt P51684 1-374 (human entry))
T2 construct: also called mfCCR6
T2 chain: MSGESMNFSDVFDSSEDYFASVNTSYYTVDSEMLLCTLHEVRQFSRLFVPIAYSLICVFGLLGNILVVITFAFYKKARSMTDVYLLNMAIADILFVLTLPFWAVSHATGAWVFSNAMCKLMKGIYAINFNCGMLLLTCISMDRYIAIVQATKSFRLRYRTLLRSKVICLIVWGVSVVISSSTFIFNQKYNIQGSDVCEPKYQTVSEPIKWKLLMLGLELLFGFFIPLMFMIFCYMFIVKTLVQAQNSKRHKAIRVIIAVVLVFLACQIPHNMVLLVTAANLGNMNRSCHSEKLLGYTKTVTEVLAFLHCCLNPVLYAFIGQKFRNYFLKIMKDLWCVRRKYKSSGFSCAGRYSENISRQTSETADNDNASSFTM

T3: human CCR6 with C-terminal His tag, on CHO-hCCR6 (isoform1) or U937-CCR6 cells (human, UniProt P51684 1-374)
T3 construct: Expressed from pKANTEX-hCCR6 (isoform1) in CHO/DG44 cells (CHO-hCCR6) and in U937 cells (U937-CCR6); also called hCCR6-His-tag
T3 sequence: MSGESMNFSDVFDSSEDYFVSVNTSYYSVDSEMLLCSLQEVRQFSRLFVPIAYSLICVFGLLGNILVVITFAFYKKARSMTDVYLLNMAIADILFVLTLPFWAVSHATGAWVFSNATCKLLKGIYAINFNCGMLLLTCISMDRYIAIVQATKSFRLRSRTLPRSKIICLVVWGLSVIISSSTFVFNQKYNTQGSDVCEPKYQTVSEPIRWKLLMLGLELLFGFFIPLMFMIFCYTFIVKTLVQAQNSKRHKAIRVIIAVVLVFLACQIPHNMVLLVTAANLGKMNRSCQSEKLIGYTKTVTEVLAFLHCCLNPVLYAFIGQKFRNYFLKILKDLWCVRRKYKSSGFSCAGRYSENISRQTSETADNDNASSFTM

T4: synthetic peptide CCR6-3 (20th to 34th amino acids of human CCR6) (human, Cys residue introduced at the N-terminal or C-terminal side)
T4 construct: also called CCR6-3 peptide
T4 peptide: CVSVNTSYYSVDSEML

T5: synthetic peptide CCR6-4 (30th to 46th amino acids of human CCR6) (human, also: 11 PEG units at the N-terminal side)
T5 construct: also called CCR6-4 peptide
T5 peptide: DSEMLLSSLQEVRQFSRC

T6: synthetic peptide CCR6-2 (9th to 23rd amino acids of human CCR6) (human, not fully specified)
T6 construct: Not sulfated; also called CCR6-2 peptide; P3: CCR6-2(B)
T6 peptide: CSDVFDSSEDYFVSVN

T7: synthetic peptide CCR6-2S (9th to 23rd amino acids of human CCR6, Tyr18-sulfation) (human)
T7 construct: also called CCR6-2S peptide; P2: CCR6-2S(B)
T7 peptide: CSDVFDSSED[sY]FVSVN


Columns and labels:
[1] = biological target: T1, synthetic peptide CCR6-1 (1st to 17th …); experiment: binding ELISA on coated peptide
[2] = biological target: T2, cynomolgus monkey CCR6 (isoform 1, …); experiment: flow cytometry on CHO-cynomolgus CCR6 cells
[3] = biological target: T3, human CCR6 with C-terminal His tag, on …; experiment: flow cytometry on CHO-hCCR6 cells
[4] = biological target: T3, human CCR6 with C-terminal His tag, on …; experiment: flow cytometry on CHO-hCCR6 cells, 0.0001 to 10 μg/mL antibody
[5] = biological target: T4, synthetic peptide CCR6-3 (20th to 34th …); experiment: binding ELISA on coated peptide
[6] = biological target: T5, synthetic peptide CCR6-4 (30th to 46th …); experiment: binding ELISA on coated peptide
[7] = biological target: T2, cynomolgus monkey CCR6 (isoform 1, …); experiment: flow cytometry on CHO-cynomolgus CCR6 cells, 0.0001 to 10 μg/mL antibody
[8] = biological target: T8, human CCR6 N-terminal extracellular domain Fc fusion protein NthCCR6-IgG4Fc (human, contains a sulfated Tyr residue; N-linked sugar chains); experiment: SPR, Biacore T100; NthCCR6-IgG4Fc captured on anti-human IgG CM5 chip, antibody injected
T8 construct: Made in CHO/DG44 cells; also called NthCCR6-Fc; NtCCR6-IgG4Fc
T8 sequence (chain, as listed by the source limits assumed): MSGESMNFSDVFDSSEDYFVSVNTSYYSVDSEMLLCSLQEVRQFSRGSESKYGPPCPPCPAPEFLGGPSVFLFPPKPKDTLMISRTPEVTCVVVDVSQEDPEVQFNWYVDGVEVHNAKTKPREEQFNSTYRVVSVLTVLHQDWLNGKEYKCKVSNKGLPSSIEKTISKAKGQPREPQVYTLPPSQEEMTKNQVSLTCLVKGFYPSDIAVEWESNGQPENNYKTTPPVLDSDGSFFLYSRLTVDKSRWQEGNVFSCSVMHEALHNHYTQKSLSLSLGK

[9] = biological target: T6, synthetic peptide CCR6-2 (9th to 23rd …); experiment: binding ELISA on coated peptide
[10] = biological target: T7, synthetic peptide CCR6-2S (9th to 23rd …); experiment: binding ELISA on coated peptide
[11] = biological target: T6, synthetic peptide CCR6-2 (9th to 23rd …); experiment: binding ELISA on coated peptide, 10 μg/mL antibody
[12] = biological target: T1, synthetic peptide CCR6-1 (1st to 17th …); experiment: binding ELISA on coated peptide, 10 μg/mL antibody
[13] = biological target: T7, synthetic peptide CCR6-2S (9th to 23rd …); experiment: binding ELISA on coated peptide, 10 μg/mL antibody

| Binder | binding result [1] | binding result [2] | binding result [3] | binding result [4] | binding result [5] | binding result [6] | binding result [7] | Kd [8] | binding result [9] | binding result [10] | binding result [11] | binding result [12] | binding result [13] |
| --- | --- | --- | --- | --- | --- | --- | --- | --- | --- | --- | --- | --- | --- |
| anti-human CCR6 mouse monoclonal antibody KM4592 (antibody, V domains shown) VH: DVQLVESGGGLVQPGGSRKLSCAASGFTFSSFGMHWVRQAPEKGLEWVAYISTGSGSIYYADTVKGRFTISRDNPKNTLFLQMTSLRSEDTAIYYCLKGGDGYYVAAWFAYWGQGTLVTVSA VL: DIVLTQAAPSVSVTPGESVSISCRSSKSLLHTNDNTYLYWFLQRPGQSPQLLIYRMSNLASGVPDRFSGSGSGTAFTLRISRVEAEDVGVYYCMQHLEYPLTFGAGTKLELK | no binding (tested: 10 μg/mL) |  |  | binds | no binding (tested: 10 μg/mL) | no binding (tested: 10 μg/mL) | binds | 0.38 nM |  |  |  |  |  |
| anti-human CCR6 rat monoclonal antibody KM4703 (antibody, rat IgG2b, V domains shown) VH: QVQMKETGPGLVQPTQTLSLTCTVSGFSLTSSRVHWVRQPPGKGLEWMGVIYYDGKTDYNATLKSRLSISRDTSKSQVFLKINSLQTDDTAMYYCAGGVIMDAWGQGASVTVSP VL: DVLMTQIPVSLPVSLGGQVAISCRSSQSLVHTDGNTYLHWYLQKPGQSPQLLIYRVSNRFSGVPDRFSGSGSGTDFTLKISRVEPEDLGVYYCSQRTYFPLTFGSGTKLEIK | no binding (tested: 10 μg/mL) |  |  | binds | no binding (tested: 10 μg/mL) | no binding (tested: 10 μg/mL) | binds | 1.15 nM |  |  |  |  |  |
| anti-human CCR6 rat monoclonal antibody KM4704 (antibody, rat IgG2b, V domains shown) VH: EVQLQESGPGLVKPSQSLSLTCSVTGYSITSNYWGWIRKFPGNKMEWMGYTSSSGSTSYNPYLKSRISITRDTSKNQFFLKLNSVTTEDTATYYCTGGYVMDAWGQGASVTVSS VL: DVLMTQTPVSLPVSLGGQVSISCRSSQSLVHSDGNTYLHWYLQKPGQSPQLLIYRVSNRFSGVPDRFSGSGSGTDFTLKISRVEPEDLGVYYCLQRTYVPWTFGGGTKLDLK | no binding (tested: 10 μg/mL) |  |  | binds | no binding (tested: 10 μg/mL) | no binding (tested: 10 μg/mL) | binds | 0.67 nM |  |  |  |  |  |
| anti-human CCR6 chimeric antibody KM4705 chimera (antibody, human IgG1, V domains shown) VH: EVQLVETGGGLVQPKGSLKLSCAASGFSFKTNAMNWVRQAPGKGLEWVARIRSKINNYATYYADSVKDRFTISRDDSQSMLYLQMNNLKTEDTAMYYCVSDHYGYGAVDYWGQGTSVTVSS VL: DIQMNQSPSSLSASLGDTITITCRASQNINIWLSWYQQKPGSIPKLLIYKASNLHTGVSSRFSGSGYGTDFTLTISSLQPEDIATYYCLQGRSYPLTFGGGTNLEIK | binds | binds | binds |  |  |  |  |  | binds | binds |  |  |  |
| anti-human CCR6 mouse monoclonal antibody KM4705 (antibody, mouse IgG2b, V domains shown) VH: EVQLVETGGGLVQPKGSLKLSCAASGFSFKTNAMNWVRQAPGKGLEWVARIRSKINNYATYYADSVKDRFTISRDDSQSMLYLQMNNLKTEDTAMYYCVSDHYGYGAVDYWGQGTSVTVSS VL: DIQMNQSPSSLSASLGDTITITCRASQNINIWLSWYQQKPGSIPKLLIYKASNLHTGVSSRFSGSGYGTDFTLTISSLQPEDIATYYCLQGRSYPLTFGGGTNLEIK |  |  |  | binds | no binding (tested: 10 μg/mL) | no binding (tested: 10 μg/mL) | binds | 6.52 nM |  |  | binds | binds | binds |

Continued, values first:

| binding result [1] | binding result [2] | binding result [3] | binding result [4] | binding result [5] | binding result [6] | binding result [7] | Kd [8] | binding result [9] | binding result [10] | binding result [11] | binding result [12] | binding result [13] | Binder |
| --- | --- | --- | --- | --- | --- | --- | --- | --- | --- | --- | --- | --- | --- |
| no binding | binds | binds |  |  |  |  |  |  |  |  |  |  | anti-human CCR6 chimeric antibody KM4592 chimera (antibody, human IgG1, V domains shown) VH: DVQLVESGGGLVQPGGSRKLSCAASGFTFSSFGMHWVRQAPEKGLEWVAYISTGSGSIYYADTVKGRFTISRDNPKNTLFLQMTSLRSEDTAIYYCLKGGDGYYVAAWFAYWGQGTLVTVSA VL: DIVLTQAAPSVSVTPGESVSISCRSSKSLLHTNDNTYLYWFLQRPGQSPQLLIYRMSNLASGVPDRFSGSGSGTAFTLRISRVEAEDVGVYYCMQHLEYPLTFGAGTKLELK |
| no binding | binds | binds |  |  |  |  |  |  |  |  |  |  | anti-human CCR6 chimeric antibody KM4703 chimera (antibody, human IgG1, V domains shown) VH: QVQMKETGPGLVQPTQTLSLTCTVSGFSLTSSRVHWVRQPPGKGLEWMGVIYYDGKTDYNATLKSRLSISRDTSKSQVFLKINSLQTDDTAMYYCAGGVIMDAWGQGASVTVSP VL: DVLMTQIPVSLPVSLGGQVAISCRSSQSLVHTDGNTYLHWYLQKPGQSPQLLIYRVSNRFSGVPDRFSGSGSGTDFTLKISRVEPEDLGVYYCSQRTYFPLTFGSGTKLEIK |
| no binding | binds | binds |  |  |  |  |  |  |  |  |  |  | anti-human CCR6 chimeric antibody KM4704 chimera (antibody, human IgG1, V domains shown) VH: EVQLQESGPGLVKPSQSLSLTCSVTGYSITSNYWGWIRKFPGNKMEWMGYTSSSGSTSYNPYLKSRISITRDTSKNQFFLKLNSVTTEDTATYYCTGGYVMDAWGQGASVTVSS VL: DVLMTQTPVSLPVSLGGQVSISCRSSQSLVHSDGNTYLHWYLQKPGQSPQLLIYRVSNRFSGVPDRFSGSGSGTDFTLKISRVEPEDLGVYYCLQRTYVPWTFGGGTKLDLK |
